The results in this text go back to PMC5893306 (Molecular pharmaceutics, 2018).

The structures appear in SMILES notation.

The nature of this data set: Rat pharmacokinetics, IV and SC. The data set is classed as in vivo, Sprague Dawley rats.
[1] abbreviates: Sprague-Dawley, rat, plasma, iv.
The mark [2] stands for this setting: Sprague-Dawley, rat, plasma, sc.

For orientation: half-life means the time needed for the level to fall by half in the phase considered. Lower therefore signals rapid decline. What is called Tmax is the time at which the peak concentration occurs. As a reminder, the bioavailability is dose-corrected exposure relative to a reference, in per cent. A higher bioavailability goes with good availability. Regarding `CCCCCCCCCCCCCCCCSC1CC(=O)N(CCC(=O)NCCOCCOCCOCCOCCOCCOCCOCCOCCOCCOCCOCCOCCOCCOCCOCCOCCOCCOCCOCCOCCOCCOCCOCCOCCC(=O)NC(COCCC(=O)NCCOCCOCCOCCOCCC(=O)NCCCC[C@@H](NC(=O)CNC(=O)[C@@H](CC(C)C)NC(=O)[C@@H](CCC(=O)O)NC(=O)[C@H]2CSSC[C@@H](NC(=O)[C@H]3CCCN3C(=O)[C@@H](Cc3c[nH]cn3)NC(C)=O)C(=O)N[C@H](CC(=O)O)C(=O)N[C@H](Cc3ccc(O)cc3)C(=O)N3CCC[C@@H]3C(=O)N[C@H](CCC(=O)O)C(=O)N[C@H](Cc3c[nH]c4ccccc34)C(=O)N[C@H](CCC(N)=O)C(=O)N[C@H](Cc3c[nH]c4ccccc34)C(=O)N[C@H](CC(C)C)C(=O)N2)C(N)=O)(COCCC(=O)NCCOCCOCCOCCOCCC(=O)NCCCC[C@@H](NC(=O)CNC(=O)[C@@H](CC(C)C)NC(=O)[C@@H](CCC(=O)O)NC(=O)[C@H]2CSSC[C@@H](NC(=O)[C@H]3CCCN3C(=O)[C@@H](Cc3c[nH]cn3)NC(C)=O)C(=O)N[C@H](CC(=O)O)C(=O)N[C@H](Cc3ccc(O)cc3)C(=O)N3CCC[C@@H]3C(=O)N[C@H](CCC(=O)O)C(=O)N[C@H](Cc3c[nH]c4ccccc34)C(=O)N[C@H](CCC(N)=O)C(=O)N[C@H](Cc3c[nH]c4ccccc34)C(=O)N[C@H](CC(C)C)C(=O)N2)C(N)=O)COCCC(=O)NCCOCCOCCOCCOCCC(=O)NCCCC[C@@H](NC(=O)CNC(=O)[C@@H](CC(C)C)NC(=O)[C@@H](CCC(=O)O)NC(=O)[C@H]2CSSC[C@@H](NC(=O)[C@H]3CCCN3C(=O)[C@@H](Cc3c[nH]cn3)NC(C)=O)C(=O)N[C@H](CC(=O)O)C(=O)N[C@H](Cc3ccc(O)cc3)C(=O)N3CCC[C@@H]3C(=O)N[C@H](CCC(=O)O)C(=O)N[C@H](Cc3c[nH]c4ccccc34)C(=O)N[C@H](CCC(N)=O)C(=O)N[C@H](Cc3c[nH]c4ccccc34)C(=O)N[C@H](CC(C)C)C(=O)N2)C(N)=O)C1=O` (stereo partly shown) [C16-PIE12-trimer], under setting [1], the Vd was found to be 0.137 L/kg and the half-life was 0.9 h. Besides, under setting [2], the Tmax is 1 h, the bioavailability is 38% and the half-life was 1.2 h. Moreover, the “increase in half-life upon IV or SC dosing” value (rats, IV or SC, compared to PIE12-trimer) was < 2 fold. For the same compound, for the setting “rats, IV, compared to PIE12-trimer”, the reduction of clearance was 5-8 fold.
